Measurements published in patent US20210253736A1 (published 2021).

T1: Cyno
T1 chain: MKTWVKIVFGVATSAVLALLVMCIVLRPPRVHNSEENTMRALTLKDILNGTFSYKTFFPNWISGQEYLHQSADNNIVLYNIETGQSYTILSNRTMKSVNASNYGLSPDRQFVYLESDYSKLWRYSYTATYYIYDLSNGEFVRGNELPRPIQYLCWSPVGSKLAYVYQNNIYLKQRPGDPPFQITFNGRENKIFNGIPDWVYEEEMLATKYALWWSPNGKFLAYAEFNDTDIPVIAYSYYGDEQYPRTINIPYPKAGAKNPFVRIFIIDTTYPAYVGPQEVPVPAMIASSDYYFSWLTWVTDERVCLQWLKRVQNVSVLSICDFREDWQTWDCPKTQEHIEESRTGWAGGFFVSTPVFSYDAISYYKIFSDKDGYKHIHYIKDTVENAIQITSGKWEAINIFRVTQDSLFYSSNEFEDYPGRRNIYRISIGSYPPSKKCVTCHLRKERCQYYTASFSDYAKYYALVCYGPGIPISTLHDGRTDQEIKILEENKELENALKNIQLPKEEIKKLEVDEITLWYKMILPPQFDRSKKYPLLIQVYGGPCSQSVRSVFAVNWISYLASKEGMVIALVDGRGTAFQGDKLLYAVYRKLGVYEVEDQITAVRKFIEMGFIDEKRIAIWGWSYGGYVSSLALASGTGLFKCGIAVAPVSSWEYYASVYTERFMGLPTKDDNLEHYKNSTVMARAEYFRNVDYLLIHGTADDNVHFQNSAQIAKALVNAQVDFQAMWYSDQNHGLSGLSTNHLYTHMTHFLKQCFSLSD

T2: His-tagged murine FAP (murine, UniProt P97321 26-761)
T2 chain: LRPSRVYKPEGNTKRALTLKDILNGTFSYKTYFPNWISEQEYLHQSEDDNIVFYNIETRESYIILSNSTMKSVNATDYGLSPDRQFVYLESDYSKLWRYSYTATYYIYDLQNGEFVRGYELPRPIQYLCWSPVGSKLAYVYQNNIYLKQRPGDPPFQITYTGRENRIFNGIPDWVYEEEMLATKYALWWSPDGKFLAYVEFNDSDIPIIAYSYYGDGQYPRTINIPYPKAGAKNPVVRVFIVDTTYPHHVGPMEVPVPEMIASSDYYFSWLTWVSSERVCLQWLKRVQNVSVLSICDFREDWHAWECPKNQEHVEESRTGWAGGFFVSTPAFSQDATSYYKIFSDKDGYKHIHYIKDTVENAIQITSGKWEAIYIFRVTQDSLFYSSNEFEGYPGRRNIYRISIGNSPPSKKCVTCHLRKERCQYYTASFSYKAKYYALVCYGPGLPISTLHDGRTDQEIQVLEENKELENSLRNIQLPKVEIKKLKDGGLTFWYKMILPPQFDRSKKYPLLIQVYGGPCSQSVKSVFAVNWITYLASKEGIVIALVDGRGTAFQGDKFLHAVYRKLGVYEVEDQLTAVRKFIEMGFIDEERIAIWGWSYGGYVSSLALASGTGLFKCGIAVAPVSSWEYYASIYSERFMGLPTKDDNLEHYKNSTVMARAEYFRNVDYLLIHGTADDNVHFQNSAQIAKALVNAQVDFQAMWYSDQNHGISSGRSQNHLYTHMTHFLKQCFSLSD

T3: Cyno FAP
T3 chain: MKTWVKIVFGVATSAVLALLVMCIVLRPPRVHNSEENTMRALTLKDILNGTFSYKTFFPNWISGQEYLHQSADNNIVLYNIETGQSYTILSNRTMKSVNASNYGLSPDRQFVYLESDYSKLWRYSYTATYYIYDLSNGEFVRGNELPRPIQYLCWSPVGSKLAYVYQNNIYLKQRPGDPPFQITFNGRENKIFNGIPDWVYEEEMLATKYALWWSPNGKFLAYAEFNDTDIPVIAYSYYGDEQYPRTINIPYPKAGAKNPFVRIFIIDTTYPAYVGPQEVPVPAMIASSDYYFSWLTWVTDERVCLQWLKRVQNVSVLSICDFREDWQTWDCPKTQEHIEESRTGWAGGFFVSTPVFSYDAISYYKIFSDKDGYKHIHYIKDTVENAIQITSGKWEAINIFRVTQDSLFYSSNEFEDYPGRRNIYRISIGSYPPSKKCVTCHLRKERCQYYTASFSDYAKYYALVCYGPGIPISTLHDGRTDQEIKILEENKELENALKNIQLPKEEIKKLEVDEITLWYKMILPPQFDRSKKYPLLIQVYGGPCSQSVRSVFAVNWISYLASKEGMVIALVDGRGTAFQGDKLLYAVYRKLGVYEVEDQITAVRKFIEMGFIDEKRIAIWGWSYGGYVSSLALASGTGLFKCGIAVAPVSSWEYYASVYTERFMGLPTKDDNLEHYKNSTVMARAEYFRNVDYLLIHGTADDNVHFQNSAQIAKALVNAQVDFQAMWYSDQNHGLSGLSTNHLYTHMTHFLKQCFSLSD


Columns and labels:
His-tagged human FAP [1] = target: T4, His-tagged human FAP (human, UniProt Q12884 26-760); test: Octet
Cyno = target: T1, Cyno; test: Octet
His-tagged murine FAP = target: T2, His-tagged murine FAP; test: Octet
His-tagged human FAP [2] = target: T4, His-tagged human FAP; test: Octet; apparent KD
Cyno FAP = target: T3, Cyno FAP; test: Octet; apparent KD

Binder	Kd (His-tagged human FAP [1])	Kd (Cyno)	Kd (His-tagged murine FAP)	Kd (His-tagged human FAP [2])	Kd (Cyno FAP)
XENP24460 (1A1B5) (antibody, V domains shown) VH: EVQLLESGGGLVQPGGSLRLSCAASGFTFSSYAMNWVRQAPGKGLEWVSTISSSGSRTYYADSVKGRFTISRDNSKNTLYLQMNSLRAEDTAVYYCAKGLVASAPFDYWGQGTLVTVSS VL: not shown	515 pM	458 pM			
XENP24461 (1A7B5) (antibody, V domains shown) VH: EVQLLESGGGLVQPGGSLRLSCAASGFTFSSYAMSWVRQAPGKGLEWVSGISGGGGSTYYADSVKGRFTISRDNSKNTLYLQMNSLRAEDTAVYYCAKIAHSRIGWHFDYWGQGTLVTVSS VL: not shown	1020 pM	1110 pM			
XENP24448 (1C3A5) (antibody, V domains shown) VH: EVQLLESGGGLVQPGGSLRLSCAASGFTFSSYAMSWVRQAPGKGLEWVSAISGSGGGTRYADSVKGRFTISRDNSKNTLYLQMNSLRAEDTAVYYCAKHSSGFHWYFDYWGQGTLVTVSS VL: not shown	4540 pM	5010 pM			
XENP24471 (1F10B5) (antibody, V domains shown) VH: EVQLLESGGGLVQPGGSLRLSCAASGFTFSSYGMSWVRQAPGKGLEWVSGISGSGSSTHYADSVKGRFTISRDNSKNTLYLQMNSLRAEDTAVYYCAKGTTGLSYFDYWGQGTLVTVSS VL: not shown	9130 pM	6930 pM	4520 pM		
XENP23936 (3F2, central-scFv) (antibody) chain 1: not shown chain 2: not shown chain 3: EIVLTQSPGTLSLSPGERATLSCRASQSVTSSYLAWYQQKPGQAPRLLINVGSRRATGIPDRFSGSGSGTDFTLTISRLEPEDFAVYYCQQGIMLPPTFGQGTKVEIKRTVAAPSVFIFPPSDEQLKSGTASVVCLLNNFYPREAKVQWKVDNALQSGNSQESVTEQDSKDSTYSLSSTLTLSKADYEKHKVYACEVTHQGLSSPVTKSFNRGEC				323 pM	187 pM
XENP23932 (29B11, central-scFv) (antibody) chain 1: EVQLLESGGGLVQPGGSLRLSCAASGFTFSSYAMSWVRQAPGKGLEWVSAIIGSGGITYYADSVKGRFTISRDNSKNTLYLQMNSLRAEDTAVYYCAKGWFGGFNYWGQGTLVTVSSASTKGPSVFPLAPSSKSTSGGTAALGCLVKDYFPEPVTVSWNSGALTSGVHTFPAVLQSSGLYSLSSVVTVPSSSLGTQTYICNVNHKPSDTKVDKKVEPKSCDKTHTCPPCPAPPVAGPSVFLFPPKPKDTLMISRTPEVTCVVVDVKHEDPEVKFNWYVDGVEVHNAKTKPREEEYNSTYRVVSVLTVLHQDWLNGKEYKCKVSNKALPAPIEKTISKAKGQPREPQVYTLPPSREEMTKNQVSLTCDVSGFYPSDIAVEWESDGQPENNYKTTPPVLDSDGSFFLYSKLTVDKSRWEQGDVFSCSVMHEALHNHYTQKSLSLSPGK chain 2: EVQLLESGGGLVQPGGSLRLSCAASGFTFSSYAMSWVRQAPGKGLEWVSAIIGSGGITYYADSVKGRFTISRDNSKNTLYLQMNSLRAEDTAVYYCAKGWFGGFNYWGQGTLVTVSSASTKGPSVFPLAPSSKSTSGGTAALGCLVKDYFPEPVTVSWNSGALTSGVHTFPAVLQSSGLYSLSSVVTVPSSSLGTQTYICNVNHKPSNTKVDKKVEPKSCGGGGSGGGGSEVQLVESGGGLVQPGGSLRLSCAASGFTFSTYAMNWVRQAPGKGLEWVGRIRSKYNNYATYYADSVKGRFTISRDDSKNTLYLQMNSLRAEDTAVYYCVRHGNFGDSYVSWFAYWGQGTLVTVSSGKPGSGKPGSGKPGSGKPGSQAVVTQEPSLTVSPGGTVTLTCGSSTGAVTTSNYANWVQQKPGKSPRGLIGGTNKRAPGVPARFSGSLLGGKAALTISGAQPEDEADYYCALWYSNHWVFGGGTKLTVLGGGGSGGGGSKTHTCPPCPAPPVAGPSVFLFPPKPKDTLMISRTPEVTCVVVDVKHEDPEVKFNWYVDGVEVHNAKTKPREEQYNSTYRVVSVLTVLHQDWLNGKEYKCKVSNKALPAPIEKTISKAKGQPREPQVYTLPPSREQMTKNQVKLTCLVKGFYPSDIAVEWESNGQPENNYKTTPPVLDSDGSFFLYSKLTVDKSRWQQGNVFSCSVMHEALHNHYTQKSLSLSPGK chain 3: EIVLTQSPGTLSLSPGERATLSCRASQSVTSSYLAWYQQKPGQAPRLLINVGSRRATGIPDRFSGSGSGTDFTLTISRLEPEDFAVYYCQQGIMLPPTFGQGTKVEIKRTVAAPSVFIFPPSDEQLKSGTASVVCLLNNFYPREAKVQWKVDNALQSGNSQESVTEQDSKDSTYSLSSTLTLSKADYEKHKVYACEVTHQGLSSPVTKSFNRGEC				< 1 pM	22.9 pM
XENP24011 (sibrotuzumab, central-scFv) (antibody) chain 1: QVQLVQSGAEVKKPGASVKVSCKTSRYTFTEYTIHWVRQAPGQRLEWIGGINPNNGIPNYNQKFKGRVTITVDTSASTAYMELSSLRSEDTAVYYCARRRIAYGYDEGHAMDYWGQGTLVTVSSASTKGPSVFPLAPSSKSTSGGTAALGCLVKDYFPEPVTVSWNSGALTSGVHTFPAVLQSSGLYSLSSVVTVPSSSLGTQTYICNVNHKPSDTKVDKKVEPKSCDKTHTCPPCPAPPVAGPSVFLFPPKPKDTLMISRTPEVTCVVVDVKHEDPEVKFNWYVDGVEVHNAKTKPREEEYNSTYRVVSVLTVLHQDWLNGKEYKCKVSNKALPAPIEKTISKAKGQPREPQVYTLPPSREEMTKNQVSLTCDVSGFYPSDIAVEWESDGQPENNYKTTPPVLDSDGSFFLYSKLTVDKSRWEQGDVFSCSVMHEALHNHYTQKSLSLSPGK chain 2: QVQLVQSGAEVKKPGASVKVSCKTSRYTFTEYTIHWVRQAPGQRLEWIGGINPNNGIPNYNQKFKGRVTITVDTSASTAYMELSSLRSEDTAVYYCARRRIAYGYDEGHAMDYWGQGTLVTVSSASTKGPSVFPLAPSSKSTSGGTAALGCLVKDYFPEPVTVSWNSGALTSGVHTFPAVLQSSGLYSLSSVVTVPSSSLGTQTYICNVNHKPSNTKVDKKVEPKSCGGGGSGGGGSEVQLVESGGGLVQPGGSLRLSCAASGFTFSTYAMNWVRQAPGKGLEWVGRIRSKYNNYATYYADSVKGRFTISRDDSKNTLYLQMNSLRAEDTAVYYCVRHGNFGDSYVSWFAYWGQGTLVTVSSGKPGSGKPGSGKPGSGKPGSQAVVTQEPSLTVSPGGTVTLTCGSSTGAVTTSNYANWVQQKPGKSPRGLIGGTNKRAPGVPARFSGSLLGGKAALTISGAQPEDEADYYCALWYSNHWVFGGGTKLTVLGGGGSGGGGSKTHTCPPCPAPPVAGPSVFLFPPKPKDTLMISRTPEVTCVVVDVKHEDPEVKFNWYVDGVEVHNAKTKPREEQYNSTYRVVSVLTVLHQDWLNGKEYKCKVSNKALPAPIEKTISKAKGQPREPQVYTLPPSREQMTKNQVKLTCLVKGFYPSDIAVEWESNGQPENNYKTTPPVLDSDGSFFLYSKLTVDKSRWQQGNVFSCSVMHEALHNHYTQKSLSLSPGK chain 3: not shown				30.8 pM	14.9 pM

More lines, now with the values ahead:

Kd (His-tagged human FAP [1])	Kd (Cyno)	Kd (His-tagged murine FAP)	Kd (His-tagged human FAP [2])	Kd (Cyno FAP)	Binder
< 1 pM	22.4 pM	45500 pM			XENP24463 (1F11B5) (antibody, V domains shown) VH: EVQLLESGGGLVQPGGSLRLSCAASGFTFSSYAMNWVRQAPGKGLEWVSGISGGGSSTTYYADSVKGRFTISRDNSKNTLYLQMNSLRAEDTAVYYCAKPYYWVDSFFDYWGQGTLVTVSS VL: not shown
< 1 pM	< 1 pM				XENP23534 (sibrotuzumab) (antibody, V domains shown) VH: QVQLVQSGAEVKKPGASVKVSCKTSRYTFTEYTIHWVRQAPGQRLEWIGGINPNNGIPNYNQKFKGRVTITVDTSASTAYMELSSLRSEDTAVYYCARRRIAYGYDEGHAMDYWGQGTLVTVSS VL: DIVMTQSPDSLAVSLGERATINCKSSQSLLYSRNQKNYLAWYQQKPGQPPKLLIFWASTRESGVPDRFSGSGFGTDFTLTISSLQAEDVAVYYCQQYFSYPLTFGQGTKVEIKR
372 pM	530 pM	33000 pM			XENP24462 (1F4B5) (antibody, V domains shown) VH: EVQLLESGGGLVQPGGSLRLSCAASGFTFSRYAMTWVRQAPGKGLEWVSSISASGGSTYYADSVKGRFTISRDNSKNTLYLQMNSLRAEDTAVYYCAKTFSGYAHYDFDYWGQGTLVTVSS VL: not shown
< 1 pM	< 1 pM				XENP24466 (1F12B5) (antibody, V domains shown) VH: EVQLLESGGGLVQPGGSLRLSCAASGFTFSSYAMTWVRQAPGKGLEWVSTISSSGGTTYYADSVKGRFTISRDNSKNTLYLQMNSLRAEDTAVYYCAKYPSYYSVTGFDYWGQGTLVTVSS VL: not shown
